In patent US20210381002A1 (CORNELL UNIVERSITY, published 2021):

B1: human catalase monomer with a 20 amino acid deletion from the wrapping loop domain (hCatWL^-) (enzyme)
chain: ADSRDPASDQMQHWKEQRAAQKADVLTTGAGNPVGDKLNVITVGPRGPLLVQDVVFTDEMAHFDRERIPERVVHAKGAGAFGYFEVTHDITKYSKAKVFEHIGKKTPIAVRFSTVAGESGSADTVRDPRGFAVKFYTEDGNWDLVGNNTPIFFIRDPILFPSFIHSQKRNPQTHLKDPDMVWDFWSLRPESLHQVSFLFSDRGIPDGHRHMNGYGSHTFKLVNANGEAVYCKFHYKTDQGIKNLSVEDAARLSQEDPDYGIRDLFNAIATGKYPSWTFYIQVMTFNQAETFPFNPFDLTKVWPHKDYPLIPVGKLVLNRNPVNYFAEVEQIAFDPSNMPPGIEASPDKMLQGRLFAYPDTHRHRLGPNYLHIPVNCPYRAPNYYPNSFGAPEQQPSALEHSIQYSGEVRRFNTANDDNVTQVRAFYVNVLNEEQRKRLCENIAGHLKDAQIFIQKKAVKNFTEVHPDYGSHIQALLDKYNAEKPKNAIHTFVQSGSHLAAREKANLYPYDVPDYA
notes: also called hCatWD^-
B2: modified human superoxide dismutase 3 (hSOD3hd^-): residues 50-59 replaced with a copy of 74-80, and heparin-binding domain residues 212-240 deleted (enzyme)
chain: WTGEDSAEPNSDSAEWIRDMYAKVTEIWQEVATLDAAQHAACQVQPSATLDAAQPRVTGVVLFRQLAPRAKLDAFFALEGFPTEPNSSSRAIHVHQFGDLSQGCESTGPHYNPLAVPHPQHPGDFGNFAVRDGSLWRYRAGLAASLAGPHSIVGRAVVVHAGEDDLGRGGNQASVENGNAGRRLACCVVG
notes: also called expression product of LEX 5b; not shown: Hemagglutinin (HA) tag used for detection with anti-HA

Assays:
[1] = target: the molecule itself; assay: Bis-Tris gel of 293T supernatant (self-association, tetramer formation)
Experimental: FIG. 14. Assessment of supernatants of catalase constructs for monomeric and multimeric catalase separation. Samples were assessed on Bis-Tris gel, blotted and probed with anti-catalase antibody (ABCAM: ab88067); predicted band sizes, 60 kDa for monomer and 240 kDa for tetramer, aAll 3 constructs secreted only the monomeric construct.
Three modifications of the human catalase sequence were assessed: hCatNT⁻, hCatWL⁻ and hCatNT⁻WL⁻. […] However, of the 3 constructs, only the wrapping loop domain deletion (hCatWD⁻) retained catalase activity (FIG. 5B). […] Intravenous administration to mice led to detection of hCatWD⁻ DNA in the liver and lung (typical for AAVrh.10 vectors) (Chiuchiolo et al., 2013), and importantly, easily detectable human catalase activity in serum, e.g., LEX 5a generates a secreted, functional catalase monomer (FIG. 7A-C).

[2] = target: the molecule itself; assay: Sephacryl size exclusion column fractions, anti-HA Western (self-association, tetramer formation)
Experimental: FIGS. 6A-B. Modified SOD3 construct. A) Secretion of the modified SOD3 constructs. Western (anti-HA tag) of supernatant of 293T cells transfected with: lane 1—mock; lane 2—unmodified HA tagged SOD3; lane 3—SOD3hd⁻. Only SOD3hd⁻ is in the supernatant. […] Approximate MW are calculated from column specifications.
Two modifications were made in a single SOD3 variant (hSOD3hd⁻), including a deletion of residues 50-59 replaced with an in frame copy of the residue segment from 74-80, and a deletion of residues 212-240, the heparin-binding domain. […] Intravenous administration to Balb/c mice led to vector DNA in liver and lung (liver 50-fold higher) and SOD activity in serum (FIG. 7D-F). LEX 5c, LEX 5d. Based on the in vitro and in vivo functional data of LEX 5a and LEX 5b, LEX 5c and LEX 5d were generated to express both catalase and SOD3 modified monomers. Based on expressing 2 genes in 1 AAV construct (De et al., 2008; Wang et al., 2010; Watanabe et al., 2010; Mao et al., 2011; Rosenberg et al., 2012; Hicks et al., 2012; Xie et al., 2014; Hicks et al., 2015; Pagovich et al., 2016; Liu et al., 2016), both […] use a single promoter, with the 2 modified cDNA separated by a furin 2A cleavage site which directs cleavage of the resulting precursor protein to generate the 2 function proteins. […]

Protein | binding result [1] | binding result [2]
B1 | no binding | –
B2 | – | no binding
